Patent CN112646036A

Target: CD23的多肽抗原 (synthetic CD23 peptide antigens of SEQ ID NO:1-3)
Assay: indirect ELISA; peptide antigens of SEQ ID NO:1-3 on the 96-well plate at varied molar concentrations, antibody at 0.125 μg/mL (about 0.83 nmol/L), HRP goat anti-mouse IgG, OD450; value given at a peptide concentration of 0.56 μmol/L

B1: 365A2D1抗CD23单克隆抗体 (anti-CD23 monoclonal antibody secreted by mouse hybridoma cell line 365A2D1) (antibody, V domains shown)
VH: EVQLQESGGGLVQPKGSLKLSCAASGYTFNTYAMHWVRQAPGKGLEWVARIRSKSNNYEPYYADSVKDRFTISRDDSQSILYLQMNNLKTEDTAMYYCVREYYDAMDYWGQGTSVTVSS
VL: EIVMTQAAPSVSVTPGESVSISCRSSQSLLHSNGNTYLYWFLQRPGQSPHLLISRVSNLASGVPDRFSGSGSGTAFTLRISRVEAEDVGVYYCMQGLEFPWTFGGGTKLEIK
Binder B1 has a Kd of 0.7 µM.
